Measured values: US8620595B2, “Methods for determining the retention of peptides in reverse phase chromatography using linear solvent strength theory” (University of Manitoba, priority 2010, dated 2013)
Values joined by “and” are separate entries in the source; they are usually repeats but may differ in a detail not shown here. Identical values can stand only once.

Experiment: Determination of S from retention time shift Δ relative to P3 at two gradient slopes, nano-RP-HPLC MS of spiked tryptic digest
Assay type: physicochemical
Settings: experimental S value, LC-MS runs of model peptide mixture
Description: Proteins and protein digestion. Tryptic digests of two different protein mixtures were utilized. The “test peptide mixture” contained human proteins: albumin, transferrin, fibrinogen. The “model peptide mixture” contained bovine proteins: albumin, transferrin, fibrinogen, catalase. Equimolar mixtures of the proteins were prepared, reduced with DTT, alkylated with iodoacetamide and digested with sequencing-grade modified trypsin (Promega, Madison, Wis.). Prior to nano-LC MS/MS analysis, mixtures were diluted with buffer A (0.1% formic acid in water) and spiked with the 6 standard peptides P1-P6^24 for test mixture and the set of 11 model peptides (described elsewhere^23) for a model mixture. All dilutions were performed to provide an injection of ˜100 fmole of each component into the nanoRP-HPLC MS system.
Chromatography. All chromatographic experiments were conducted at a controlled temperature of 22-23° C. For isocratic measurement of the slope values, a micro-Agilent 1100 Series system (Agilent Technologies, Wilmington, Del.), was used with a 1 mm×100 mm 5 μm Luna C18(2) (Phenomenex, Torrance, Calif.) column and a UV detector operated at 214 nm. Both eluents A (water) and B (acetonitrile) contained 0.1% formic acid as ion-pairing modifier. Stock solutions of the 11 standard peptides (˜1 mg/ml) were prepared by dissolving each peptide in 1 ml of 0.1% FA in water or a 20% acetonitrile solution. Ten microliters of sample was injected. Individual peptides were diluted to provide ˜0.5-1 μg injection of each component using a 10 μl loop. The dead volume of the column and connecting tubings was determined by injecting a non-retained compound (water) and measuring the elution time of the negative peak at a 150 μL/min flow rate. Retention factors for isocratic elution were calculated using the formula: k=(tR−t0)/t0c; where tR is the retention time, t0 is the system (column and tubings) dead time, and t0c is the column dead time. Additional details of measuring S-values via constructing log k vs. φ plots are provided elsewhere.^24 The nano-LC MS/MS experiments were conducted using splitless Tempo LC system (Eksigent, Dublin, Calif.) with 20 μL sample injection via a 300 μm×5 mm PepMap100 (Dionex, Sunnyvale, Calif.) trap-column and a 100 μm×200 mm analytical column packed with 5 μm Luna C18(2) (Phenomenex, Torrance, Calif.). Tryptic digests of the mixtures were spiked with calibrating peptides (see Table 1) as described above, injected on the trap-column using buffer A as a carrier and separated using 0.1875, 0.375 and 0.75 percent acetonitrile per minute linear gradients starting from 0.5% acetonitrile at 500 nL/min flow rate. The composition of both eluents A and B was identical to one described above for normal-flow system. Gradient programs consisted of a 0.5-40% linear increase of buffer B in 213.2, 106.6 and 53.3 minutes, respectively. After each run the gradient columns were washed with 80% B for 3 minutes and equilibrated with the starting A:B ratio for 18 minutes.
Mass spectrometry. A QStar Elite mass spectrometer (Applied Biosystems, Foster City, Calif.) equipped with a MicrolonSpray II source was used in standard MS/MS information dependent acquisition (IDA) mode for LC-ESI analyses. Protein identification was performed using Protein Pilot 3.0 (Applied Biosystems, Foster City, Calif.) with a restricted database containing target protein sequences and the sequences of standard peptides. Retention times of identified species (peak maxima) were assigned manually.
These two ways of measurement have been combined to provide a highly accurate and fast way of determining S for an extensive sets of peptides (see FIG. 3). First, precise isocratic measurement of S is performed in normal flow conditions with UV detection for a set of synthetic “S-calibrating” peptides. […]

Compared with AAANFFSASCVPCADQSSFPK, AEFVEVTK is lower in “Slope (experimental)” value: 35.1 for the first, 29.046 for the second.

Going from AFALECIR to AIQISYNPDQPSKPNNIESATK, the “Slope (experimental)” value rises from 26.057 to 42.444.

Compared with ALEHKVDLEDYK, AMTNLR is lower in “Slope (experimental)” value: 39.365 for the first, 32.841 for the second.

Going from ANEGLTWNSLK to APVDAFKECHLAQVPSHAVVAR, the “Slope (experimental)” value rises from 27.455 to 46.264.

Going from CCTESLVNR to CGLVPVLAENYK, the “Slope (experimental)” value falls from 33.998 to 27.604.

Going from CLASIAK to CLMEGAGDVAFVK, the “Slope (experimental)” value rises from 30.212 to 30.666.

Going from CLQDGAGDVAFVK to DAQLFIQK, the “Slope (experimental)” value falls from 31.382 to 24.282.

Compared with “DGTRKPVTDAENCHLAR [tryptic peptide of the model peptide mixture, 5 positively charged groups]”, DIQYLPILK is lower in “Slope (experimental)” value: 50.359 for the first, 25.291 for the second.

Compared with DKVVQLEANCQEPCQDTVK, DNPQTHYYAVAVVK is lower in “Slope (experimental)” value: 42.675 for the first, 34.815 for the second.

First: DNPQTHYYAVAVVKK
Second: DTDFKLNELR
The “Slope (experimental)” value of the first is higher: 39.552 for the first, 30.459 for the second.

First: ECCHGDLLECADDRADLAK
Second: ECHLAQVPSHAVVAR
The “Slope (experimental)” value of the first is lower: 40.256 for the first, 44.148 for the second.

First: EDLIWK [tryptic peptide detected in the model peptide mixture]
Second: EGFGHLSPTGNTEFWLGNEK
The “Slope (experimental)” value of the first is lower: 21.902 for the first, 36.558 for the second.

Going from EKYYGYTGAFR to ELPDPQESIQR, the “Slope (experimental)” value falls from 34.957 to 34.299.

Going from ENFEVLCK to ENVLR, the “Slope (experimental)” value rises from 27.436 to 31.531.

Going from EPISVSSQQMLK to EPYFGYSGAFK, the “Slope (experimental)” value falls from 33.2 to 28.713.

First: ESGLYFIRPLK
Second: ESPQTHYYAVAVVK
The “Slope (experimental)” value of the first is lower: 30.232 for the first, 36.262 for the second.

Going from ETTVFENLPEK to ETTVFENLPEKADR, the “Slope (experimental)” value rises from 29.323 to 34.533.

Going from ETYGDMADCCEK to EYEATLEECCAK, the “Slope (experimental)” value falls from 36.36 to 35.459.

First: FCLFK [tryptic peptide detected in the model peptide mixture]
Second: FFSASCVPCIDR
The “Slope (experimental)” value of the first is lower: 21.68 for the first, 32.333 for the second.

Compared with FKDLGEEHFK, FLQEIYNSNSQK is lower in “Slope (experimental)” value: 38.336 for the first, 30.666 for the second.

Going from FNSANDDNVTQVR to FPTIPLSR, the “Slope (experimental)” value falls from 38.415 to 27.325.

First: FSTVAGESGSADTVRDPR
Second: GDSVSQGTGLAPGSPR
The “Slope (experimental)” value of the first is higher: 44.208 for the first, 38.571 for the second.

First: GGWTVIQNR
Second: GLIDEVDQDFTSR
The “Slope (experimental)” value of the first is lower: 26.957 for the first, 30.089 for the second.

First: GSNFQLDQLQGR
Second: GYLAVAVVK
The “Slope (experimental)” value of the first is higher: 30.314 for the first, 27.811 for the second.

First: HLVDEPQNLIK
Second: IEILR
The “Slope (experimental)” value of the first is higher: 35.894 for the first, 24.216 for the second.

First: IETMR
Second: IHLISTQSTIPYVLR
The “Slope (experimental)” value of the first is higher: 37.108 for the first, 35.386 for the second.

Compared with IIPLNR, ILESGPFVSCVK is higher in “Slope (experimental)” value: 28.596 for the first, 29.323 for the second.

Going from ILESGPFVSCVKK to ILNKQQDDFGK, the “Slope (experimental)” value rises from 34.299 to 40.011.

Compared with IPSKVDSALYLGSR, IQALLDK is lower in “Slope (experimental)” value: 35.773 for the first, 26.395 for the second.

First: IQALLDKYNEEKPK
Second: IQALLDKYNEEKPKN
The “Slope (experimental)” value of the first is higher: 40.311 for the first, 40.038 for the second.

Compared with IQLEDWNGR, IRPYFPEQ is higher in “Slope (experimental)” value: 27.849 for the first, 28.791 for the second.

First: ISQLTNMGPTK
Second: IVNLR
The “Slope (experimental)” value of the first is higher: 33.29 for the first, 29.724 for the second.

In the case of KDMDKVETFLR, the “Slope (experimental)” value is reported as 34.768.

Same assay, conditions: experimental S, LC-MS runs of model peptide mixture, formic acid

First: AAQKPDVLTTGGGNPVGDK
Second: AAQKPDVLTTGGGNPVGDKLNSLTVGPR
The “Slope (experimental)” value of the first is lower: 41.223 for the first, 41.986 for the second.

Going from ALLEMQQTK to ANEGLTWNSLKDK, the “Slope (experimental)” value rises from 26.288 to 32.686.

Compared with APVDAFK, ARPATATVGQK is higher in “Slope (experimental)” value: 26.378 for the first, 51.675 for the second.

Going from AVLKDGPLTGTYR to AVVQDPALKPLALVYGEATSR, the “Slope (experimental)” value rises from 35.435 to 35.627.

Going from AWSVAR to CACSNHEPYFGYSGAFK, the “Slope (experimental)” value rises from 26.993 to 35.846.

First: CCAADDKEACFAVEGPK
Second: CGLVPVLAENR
The “Slope (experimental)” value of the first is higher: 38.207 for the first, 26.128 for the second.

Compared with CGLVPVLAENRK, CLVEK is lower in “Slope (experimental)” value: 30.745 for the first, 27.661 for the second.

Going from DALLFPSFIHSQK to DALLFPSFIHSQKR, the “Slope (experimental)” value rises from 29.523 to 30.728.

Compared with DDPHACYSTVFDK, DDPHACYSTVFDKLK is higher in “Slope (experimental)” value: 32.575 for the first, 35.483 for the second.

Going from DDSPDLPK to DFPIANGER, the “Slope (experimental)” value falls from 30.875 to 26.539.

Compared with DGPLTGTYR, DKDDFFTR is lower in “Slope (experimental)” value: 28.947 for the first, 25.342 for the second.

Going from DKPDNFQLFQSPHGK to DLEEGIQTLMGR, the “Slope (experimental)” value falls from 32.597 to 26.684.

First: DLGEEHFK
Second: DLLFK [tryptic peptide detected in the model peptide mixture]
The “Slope (experimental)” value of the first is higher: 32.597 for the first, 18.223 for the second.

Compared with “DLLFR [tryptic peptide detected in the model peptide mixture]”, DNCCILDER is higher in “Slope (experimental)” value: 18.36 for the first, 28.077 for the second.

Going from DQLVDMK to DQTVIQNTDGNNNEAWAK, the “Slope (experimental)” value rises from 25.899 to 34.721.

First: DSADGFLK
Second: DSADGFLKIPSK
The “Slope (experimental)” value of the first is lower: 22.49 for the first, 30.089 for the second.

Compared with “DSALGFLR [tryptic peptide detected in the model peptide mixture]”, DSLFNYQK is higher in “Slope (experimental)” value: 21.784 for the first, 24.58 for the second.

First: ECCDKPLLEK
Second: ECCHGDLLECADDR
The “Slope (experimental)” value of the first is higher: 35.555 for the first, 34.957 for the second.

Compared with ECVPNSNER, EDGGGWWVYNR is lower in “Slope (experimental)” value: 44.66 for the first, 23.696 for the second.

Going from EDGSDPPSGDFLTEGGGVR to EEGSVSSGTKQEFHTGK, the “Slope (experimental)” value rises from 30.812 to 48.449.

First: ELLIDNEK
Second: ESKPPDSSKDECMVK
The “Slope (experimental)” value of the first is lower: 25.018 for the first, 48.845 for the second.

Going from ETGWPFCSDEDWNTK to FDEFFSAGCAPGSPR, the “Slope (experimental)” value falls from 29.105 to 28.654.

Going from “FYTEDGNVVOLVGNNTPIFFIR (FYTEDGNWDLVGNNTPIFFIR)” to GACLLPK, the “Slope (experimental)” value falls from 31.467 to 25.811.

Going from GAGAFGYFEVTHDITR to GDKELLIDNEK, the “Slope (experimental)” value falls from 33.608 to 32.311.

First: GDKVTALYEGFTVQNEANK
Second: GEADALNLDGGYIYTAGK
The “Slope (experimental)” value of the first is higher: 35.1 for the first, 31.382 for the second.

First: GEGENQCACSSR [moderately sized, hydrophilic tryptic species of the model peptide mixture]
Second: GNLDDFFHR
The “Slope (experimental)” value of the first is higher: 54.005 for the first, 26.957 for the second.

First: GRQNQVQDNENVVNEYSSHLEK
Second: GTGKECVPNSNER
The “Slope (experimental)” value of the first is lower: 42.444 for the first, 48.911 for the second.

Going from HMDGYGSHTFK to HQLYIDETVK, the “Slope (experimental)” value falls from 41.758 to 34.369.

Going from HSTVFDNLPNPEDR to HSTVFDNLPNPEDRK, the “Slope (experimental)” value rises from 34.439 to 36.807.

Compared with INLLQK, KANEGLTWNSLK is higher in “Slope (experimental)” value: 24.664 for the first, 31.085 for the second.

In the case of KANEGLTWNSLKDK, the “Slope (experimental)” value is reported as 35.507.

Same assay, conditions: model peptide mixture (tryptic digest of bovine proteins), 0.75 and 0.1875% acetonitrile per minute gradients, formic acid, S from Δ vs. S curve of S-calibrating peptides

Going from “DGTRKPVTDAENCHLAR [tryptic peptide of the model peptide mixture, 5 positively charged groups]” to “DLLFK [tryptic peptide detected in the model peptide mixture]”, the “experimental S-value” falls from 50.4 to 18.2.

Going from “DLLFR [tryptic peptide detected in the model peptide mixture]” to “DSALGFLR [tryptic peptide detected in the model peptide mixture]”, the “experimental S-value” rises from 18.4 to 21.8.

First: EDLIWK [tryptic peptide detected in the model peptide mixture]
Second: FCLFK [tryptic peptide detected in the model peptide mixture]
The “experimental S-value” of the first is higher: 21.9 for the first, 21.7 for the second.

For “GEGENQCACSSR [moderately sized, hydrophilic tryptic species of the model peptide mixture]”, the “experimental S-value” was 54.1 and 51.7.
